Data: patent US8431161B2, “Microparticle and pharmaceutical composition thereof” (Toray Industries, Inc., priority 2008, dated 2013)
Where two headings read alike, the source gives them in different places.

Assays:
[1] = Hypodermic administration of Exendin-4-encapsulating microparticles in SCID mouse, Exendin-4 in plasma; format: in vivo; details: 700 μg/0.2 ml
Protocol: (§1) The supernatant was centrifugally separated again for 5 minutes at 80×g, and the remaining particles were precipitated, and the supernatant was removed.
This solution was hypodermically injected in the back of 8-week-old SCID mouse (CB17/lcr-Prkdcscid/CrlCrlk) (from Crea Japan Inc.), and the blood was sampled at specific intervals from the caudal vein.

[2] = mouse, in vivo
Protocol: as §1

[3] = Body weight changes of pituitary gland extracted mouse after hGH microparticles; format: in vivo; details: hypodermic administration
[4] = mouse, in vivo; remark: listed apart in the source
Protocol: 300 mg of the prepared microparticles was suspended and dispersed in 3 ml of phosphate physiological buffer solution (PBS), and centrifuged for 5 minutes at 80×g to precipitate microparticles, and the supernatant was transferred into other tube. The supernatant was centrifuged again for 5 minutes at 80×g to precipitate the remaining particles, and the supernatant was removed. By re-dispersing in 1 ml of PBS after first time of centrifugal precipitation and second time of centrifugal precipitation, the same centrifugal cleaning operation was repeated three times, and the growth hormone not encapsulated in the microparticles were removed. Finally, the precipitation was dispersed again in 200 μl of PBS, and an administration solution was obtained.
This solution was injected hypodermically at two positions in the back of 10-week male Balb/C mouse, and the blood was sampled at specific time intervals from the caudal vein. In the sampled blood, heparin of final concentration of 3.31 U/ml was added, and plasma was collected by centrifugal separation for 5 minutes at 5,000 rpm, and the concentration of growth hormone in plasma was measured by using an ELISA kit.
By way of comparison, a non-granulated human growth hormone protein solution (700 μg/0.2 ml) was hypodermically administered in mouse, and the blood was sampled similarly. […]

Row | Substance | blood level in 1 hour after administration (Exendin-4 in plasma) [1] | time in which blood level dropped to a level before administration [2] | body weight increase [3] | time in which blood level dropped to a level before administration [4]
1 | Exendin-4 [non-granulated Exendin-4] | very high | a day | – | –
2 | human growth hormone [non-granulated human growth hormone] | – | – | about 5% | a day
